Measurements from publication PMC3344845, “Structure of Bradavidin – C-Terminal Residues Act as Intrinsic Ligands” (PLoS ONE, 2012).

Tests used:
[1] = biological target: core-bradavidin (Bradyrhizobium japonicum); test: ITC; core-bradavidin in the cell, Brad-tag–EGFP in the syringe, 25°C, 50 mM sodium phosphate pH 7.0, 100 mM NaCl; n is the stoichiometry per subunit
[2] = biological target: core-bradavidin (Bradyrhizobium japonicum); test: ITC; core-bradavidin in the cell, ligand (Brad-tag or Brad-tag–EGFP) in the syringe, 15°C, 50 mM sodium phosphate pH 7.0, 100 mM NaCl; n is the stoichiometry per subunit
[3] = biological target: Brad-tag–EGFP–His-tag fusion protein (Bradyrhizobium japonicum); test: BLI; Octet RED384; Brad-tag–EGFP–His-tag (0.03 mg/ml, 700 s) held on anti-Penta-HIS biosensors; higher concentrations: core-bradavidin 0.5, wt bradavidin 1.2, avidin 1.8, streptavidin 1.7, rhizavidin 2.0 mg/ml for 200 s; controls with biotin (3.2 mM for core-bradavidin, 13 mM for avidin) and plain sensors; 30°C

Row | Kd [1] [µM] | dH [1] [kcal mol^–1] | stoichiometry N [1] | Kd [2] [µM] | dH [2] [kcal mol^–1] | stoichiometry N [2] | shift (BLI response) [3] [nm] | Substance
1 | 3.1 | -1 | 0.68 | 2.8 | -0.5 | 0.68 | – | Brad-tag–EGFP fusion protein (without His-tag)
2 | – | – | – | – | – | – | 1.2 | core-bradavidin (domain or fragment)
